Measured values as given in patent US20140087995A1 (published 2014).
Numbered stars: 1 amine (or outer) side, 2 acyl side, 3 side chain; on linkers, the order of the positions; unused ones are H or OH. Bridge positions count the residues as written; N and C are the ends. Side chains are listed from the residue outwards. Ends that are not written are not given here. * marks the point of attachment. C20 diacid = O=C(O)CCCCCCCCCCCCCCCCCCC(=O)*; γGlu = O=C(O)[C@H](CCC(=O)[*:2])N[*:1]; AEEA = NCCOCCOCC(=O)O

T1: human calcitonin receptor (human, UniProt P30988 25-474)
T1 sequence (looked up): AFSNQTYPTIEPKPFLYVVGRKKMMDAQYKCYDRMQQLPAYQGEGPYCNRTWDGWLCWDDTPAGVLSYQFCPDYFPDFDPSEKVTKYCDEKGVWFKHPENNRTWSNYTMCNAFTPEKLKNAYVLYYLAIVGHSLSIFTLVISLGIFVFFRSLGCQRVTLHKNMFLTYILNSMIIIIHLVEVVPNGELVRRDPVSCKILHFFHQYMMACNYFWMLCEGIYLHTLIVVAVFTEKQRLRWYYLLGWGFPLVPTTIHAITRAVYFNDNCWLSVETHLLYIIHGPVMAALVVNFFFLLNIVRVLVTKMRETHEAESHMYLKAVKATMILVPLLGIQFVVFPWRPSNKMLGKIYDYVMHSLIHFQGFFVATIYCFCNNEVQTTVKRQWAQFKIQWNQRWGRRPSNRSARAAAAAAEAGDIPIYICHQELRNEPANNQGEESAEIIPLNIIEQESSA

B1: N^ε1-[2-[2-[2-[[(4S)-4-carboxy-4-(19-carboxynonadecanoylamino)butanoyl]amino]ethoxy]ethoxy]acetyl]-[Arg17,Pro21,Pro27,Arg34]-h-amylin (peptide)
peptide: K([AEEA-γGlu-C20 diacid])CNTATCATQRLANFLRHSSPNFGAIPSSTNVGRNTY-NH2
modifications: disulfide 2-7; N-terminus assumed
SMILES: CC[C@H](C)[C@H](NC(=O)[C@H](C)NC(=O)CNC(=O)[C@H](Cc1ccccc1)NC(=O)[C@H](CC(N)=O)NC(=O)[C@@H]1CCCN1C(=O)[C@H](CO)NC(=O)[C@H](CO)NC(=O)[C@H](Cc1c[nH]cn1)NC(=O)[C@H](CCCNC(=N)N)NC(=O)[C@H](CC(C)C)NC(=O)[C@H](Cc1ccccc1)NC(=O)[C@H](CC(N)=O)NC(=O)[C@H](C)NC(=O)[C@H](CC(C)C)NC(=O)[C@H](CCCNC(=N)N)NC(=O)[C@H](CCC(N)=O)NC(=O)[C@@H](NC(=O)[C@H](C)NC(=O)[C@@H]1CSSC[C@H](NC(=O)[C@@H](N)CCCCNC(=O)COCCOCCNC(=O)CC[C@H](NC(=O)CCCCCCCCCCCCCCCCCCC(=O)O)C(=O)O)C(=O)N[C@@H](CC(N)=O)C(=O)N[C@@H]([C@@H](C)O)C(=O)N[C@@H](C)C(=O)N[C@@H]([C@@H](C)O)C(=O)N1)[C@@H](C)O)C(=O)N1CCC[C@H]1C(=O)N[C@@H](CO)C(=O)N[C@@H](CO)C(=O)N[C@H](C(=O)N[C@@H](CC(N)=O)C(=O)N[C@H](C(=O)NCC(=O)N[C@@H](CCCNC(=N)N)C(=O)N[C@@H](CC(N)=O)C(=O)N[C@H](C(=O)N[C@@H](Cc1ccc(O)cc1)C(N)=O)[C@@H](C)O)C(C)C)[C@@H](C)O
notes: also called compound 78
B2: N^ε1-[2-[2-[2-[[(4S)-4-carboxy-4-(19-carboxynonadecanoylamino)butanoyl]amino]ethoxy]ethoxy]acetyl]-[Arg17,Pro21,Pro27,His34]-h-amylin (peptide)
peptide: K([AEEA-γGlu-C20 diacid])CNTATCATQRLANFLRHSSPNFGAIPSSTNVGHNTY-NH2
modifications: disulfide 2-7; N-terminus assumed
SMILES: CC[C@H](C)[C@H](NC(=O)[C@H](C)NC(=O)CNC(=O)[C@H](Cc1ccccc1)NC(=O)[C@H](CC(N)=O)NC(=O)[C@@H]1CCCN1C(=O)[C@H](CO)NC(=O)[C@H](CO)NC(=O)[C@H](Cc1c[nH]cn1)NC(=O)[C@H](CCCNC(=N)N)NC(=O)[C@H](CC(C)C)NC(=O)[C@H](Cc1ccccc1)NC(=O)[C@H](CC(N)=O)NC(=O)[C@H](C)NC(=O)[C@H](CC(C)C)NC(=O)[C@H](CCCNC(=N)N)NC(=O)[C@H](CCC(N)=O)NC(=O)[C@@H](NC(=O)[C@H](C)NC(=O)[C@@H]1CSSC[C@H](NC(=O)[C@@H](N)CCCCNC(=O)COCCOCCNC(=O)CC[C@H](NC(=O)CCCCCCCCCCCCCCCCCCC(=O)O)C(=O)O)C(=O)N[C@@H](CC(N)=O)C(=O)N[C@@H]([C@@H](C)O)C(=O)N[C@@H](C)C(=O)N[C@@H]([C@@H](C)O)C(=O)N1)[C@@H](C)O)C(=O)N1CCC[C@H]1C(=O)N[C@@H](CO)C(=O)N[C@@H](CO)C(=O)N[C@H](C(=O)N[C@@H](CC(N)=O)C(=O)N[C@H](C(=O)NCC(=O)N[C@@H](Cc1c[nH]cn1)C(=O)N[C@@H](CC(N)=O)C(=O)N[C@H](C(=O)N[C@@H](Cc1ccc(O)cc1)C(N)=O)[C@@H](C)O)C(C)C)[C@@H](C)O
notes: also called compound 76
B3: N^ε1-[2-[2-[2-[[(4S)-4-carboxy-4-(19-carboxynonadecanoylamino)butanoyl]amino]ethoxy]ethoxy]acetyl]-[Gly14,Arg17,Pro21,Pro27,Pro31]-h-amylin (peptide)
peptide: K([AEEA-γGlu-C20 diacid])CNTATCATQRLAGFLRHSSPNFGAIPSSTPVGSNTY-NH2
modifications: disulfide 2-7; N-terminus assumed
SMILES: CC[C@H](C)[C@H](NC(=O)[C@H](C)NC(=O)CNC(=O)[C@H](Cc1ccccc1)NC(=O)[C@H](CC(N)=O)NC(=O)[C@@H]1CCCN1C(=O)[C@H](CO)NC(=O)[C@H](CO)NC(=O)[C@H](Cc1c[nH]cn1)NC(=O)[C@H](CCCNC(=N)N)NC(=O)[C@H](CC(C)C)NC(=O)[C@H](Cc1ccccc1)NC(=O)CNC(=O)[C@H](C)NC(=O)[C@H](CC(C)C)NC(=O)[C@H](CCCNC(=N)N)NC(=O)[C@H](CCC(N)=O)NC(=O)[C@@H](NC(=O)[C@H](C)NC(=O)[C@@H]1CSSC[C@H](NC(=O)[C@@H](N)CCCCNC(=O)COCCOCCNC(=O)CC[C@H](NC(=O)CCCCCCCCCCCCCCCCCCC(=O)O)C(=O)O)C(=O)N[C@@H](CC(N)=O)C(=O)N[C@@H]([C@@H](C)O)C(=O)N[C@@H](C)C(=O)N[C@@H]([C@@H](C)O)C(=O)N1)[C@@H](C)O)C(=O)N1CCC[C@H]1C(=O)N[C@@H](CO)C(=O)N[C@@H](CO)C(=O)N[C@H](C(=O)N1CCC[C@H]1C(=O)N[C@H](C(=O)NCC(=O)N[C@@H](CO)C(=O)N[C@@H](CC(N)=O)C(=O)N[C@H](C(=O)N[C@@H](Cc1ccc(O)cc1)C(N)=O)[C@@H](C)O)C(C)C)[C@@H](C)O
notes: also called compound 71
B4: N^ε1-[2-[2-[2-[[(4S)-4-carboxy-4-(19-carboxynonadecanoylamino)butanoyl]amino]ethoxy]ethoxy]acetyl]-[His14,Arg17,Pro21,Pro27,Arg34]-h-amylin (peptide)
peptide: K([AEEA-γGlu-C20 diacid])CNTATCATQRLAHFLRHSSPNFGAIPSSTNVGRNTY-NH2
modifications: disulfide 2-7; N-terminus assumed
SMILES: CC[C@H](C)[C@H](NC(=O)[C@H](C)NC(=O)CNC(=O)[C@H](Cc1ccccc1)NC(=O)[C@H](CC(N)=O)NC(=O)[C@@H]1CCCN1C(=O)[C@H](CO)NC(=O)[C@H](CO)NC(=O)[C@H](Cc1c[nH]cn1)NC(=O)[C@H](CCCNC(=N)N)NC(=O)[C@H](CC(C)C)NC(=O)[C@H](Cc1ccccc1)NC(=O)[C@H](Cc1c[nH]cn1)NC(=O)[C@H](C)NC(=O)[C@H](CC(C)C)NC(=O)[C@H](CCCNC(=N)N)NC(=O)[C@H](CCC(N)=O)NC(=O)[C@@H](NC(=O)[C@H](C)NC(=O)[C@@H]1CSSC[C@H](NC(=O)[C@@H](N)CCCCNC(=O)COCCOCCNC(=O)CC[C@H](NC(=O)CCCCCCCCCCCCCCCCCCC(=O)O)C(=O)O)C(=O)N[C@@H](CC(N)=O)C(=O)N[C@@H]([C@@H](C)O)C(=O)N[C@@H](C)C(=O)N[C@@H]([C@@H](C)O)C(=O)N1)[C@@H](C)O)C(=O)N1CCC[C@H]1C(=O)N[C@@H](CO)C(=O)N[C@@H](CO)C(=O)N[C@H](C(=O)N[C@@H](CC(N)=O)C(=O)N[C@H](C(=O)NCC(=O)N[C@@H](CCCNC(=N)N)C(=O)N[C@@H](CC(N)=O)C(=O)N[C@H](C(=O)N[C@@H](Cc1ccc(O)cc1)C(N)=O)[C@@H](C)O)C(C)C)[C@@H](C)O
notes: also called compound 84
B5: N^ε1-[2-[2-[2-[[(4S)-4-carboxy-4-(19-carboxynonadecanoylamino)butanoyl]amino]ethoxy]ethoxy]acetyl]-[His14,Arg17,Pro21,Pro27,His34]-h-amylin (peptide)
peptide: K([AEEA-γGlu-C20 diacid])CNTATCATQRLAHFLRHSSPNFGAIPSSTNVGHNTY-NH2
modifications: disulfide 2-7; N-terminus assumed
SMILES: CC[C@H](C)[C@H](NC(=O)[C@H](C)NC(=O)CNC(=O)[C@H](Cc1ccccc1)NC(=O)[C@H](CC(N)=O)NC(=O)[C@@H]1CCCN1C(=O)[C@H](CO)NC(=O)[C@H](CO)NC(=O)[C@H](Cc1c[nH]cn1)NC(=O)[C@H](CCCNC(=N)N)NC(=O)[C@H](CC(C)C)NC(=O)[C@H](Cc1ccccc1)NC(=O)[C@H](Cc1c[nH]cn1)NC(=O)[C@H](C)NC(=O)[C@H](CC(C)C)NC(=O)[C@H](CCCNC(=N)N)NC(=O)[C@H](CCC(N)=O)NC(=O)[C@@H](NC(=O)[C@H](C)NC(=O)[C@@H]1CSSC[C@H](NC(=O)[C@@H](N)CCCCNC(=O)COCCOCCNC(=O)CC[C@H](NC(=O)CCCCCCCCCCCCCCCCCCC(=O)O)C(=O)O)C(=O)N[C@@H](CC(N)=O)C(=O)N[C@@H]([C@@H](C)O)C(=O)N[C@@H](C)C(=O)N[C@@H]([C@@H](C)O)C(=O)N1)[C@@H](C)O)C(=O)N1CCC[C@H]1C(=O)N[C@@H](CO)C(=O)N[C@@H](CO)C(=O)N[C@H](C(=O)N[C@@H](CC(N)=O)C(=O)N[C@H](C(=O)NCC(=O)N[C@@H](Cc1c[nH]cn1)C(=O)N[C@@H](CC(N)=O)C(=O)N[C@H](C(=O)N[C@@H](Cc1ccc(O)cc1)C(N)=O)[C@@H](C)O)C(C)C)[C@@H](C)O
notes: also called compound 80
B6: N^ε1-[2-[2-[2-[[(4S)-4-carboxy-4-(19-carboxynonadecanoylamino)butanoyl]amino]ethoxy]ethoxy]acetyl]-[His14,Arg17,Pro21,Pro27,Pro31]-h-amylin (peptide)
peptide: K([AEEA-γGlu-C20 diacid])CNTATCATQRLAHFLRHSSPNFGAIPSSTPVGSNTY-NH2
modifications: disulfide 2-7; N-terminus assumed
SMILES: CC[C@H](C)[C@H](NC(=O)[C@H](C)NC(=O)CNC(=O)[C@H](Cc1ccccc1)NC(=O)[C@H](CC(N)=O)NC(=O)[C@@H]1CCCN1C(=O)[C@H](CO)NC(=O)[C@H](CO)NC(=O)[C@H](Cc1c[nH]cn1)NC(=O)[C@H](CCCNC(=N)N)NC(=O)[C@H](CC(C)C)NC(=O)[C@H](Cc1ccccc1)NC(=O)[C@H](Cc1c[nH]cn1)NC(=O)[C@H](C)NC(=O)[C@H](CC(C)C)NC(=O)[C@H](CCCNC(=N)N)NC(=O)[C@H](CCC(N)=O)NC(=O)[C@@H](NC(=O)[C@H](C)NC(=O)[C@@H]1CSSC[C@H](NC(=O)[C@@H](N)CCCCNC(=O)COCCOCCNC(=O)CC[C@H](NC(=O)CCCCCCCCCCCCCCCCCCC(=O)O)C(=O)O)C(=O)N[C@@H](CC(N)=O)C(=O)N[C@@H]([C@@H](C)O)C(=O)N[C@@H](C)C(=O)N[C@@H]([C@@H](C)O)C(=O)N1)[C@@H](C)O)C(=O)N1CCC[C@H]1C(=O)N[C@@H](CO)C(=O)N[C@@H](CO)C(=O)N[C@H](C(=O)N1CCC[C@H]1C(=O)N[C@H](C(=O)NCC(=O)N[C@@H](CO)C(=O)N[C@@H](CC(N)=O)C(=O)N[C@H](C(=O)N[C@@H](Cc1ccc(O)cc1)C(N)=O)[C@@H](C)O)C(C)C)[C@@H](C)O
notes: also called compound 61

Target: T1, human calcitonin receptor
Experiment: cell-based or functional assay

In order of rising “hCTR funct. EC50” value:
1. B3  0.527 nM
2. B6  0.554 nM
3. B5  2.14 nM
4. B4  5.49 nM
5. B2  7.37 nM
6. B1  8.17 nM
